Holding throughout (conditions): remark: other sources report otherwise
Assay [1] has as its target trimeric prefusion S protein of SARS-CoV-2 (SARS-CoV-2), P0DTC2.
Assay [2] deals with T1, sCoV2-RBD (Fc-tagged RBD of SARS-CoV-2 S protein) (SARS-CoV-2; human), P0DTC2.
The target in assay [3] is T1, sCoV2-RBD (Fc-tagged RBD of SARS-CoV-2 …). Put plainly: ELISA titration on coated sCoV2-RBD. In general terms: ELISA stands for enzyme-linked immunosorbent assay.
The target is the same in assay [4]. Put plainly: BLI (Octet) blocking of ACE2 binding to captured sCoV2-RBD. On the technique in general: BLI is a label-free optical method that tracks binding on a fibre tip over time.

Read-outs that look alike come from different tables or passages of the source.

B1: CoV2-16 (antibody, V domains shown)
VH: QVQLHQWGAGLLKPSETLSRTCAVYGGSFSGYYWTWIRQAPGKGLEWIGEINHGGSTRYNPSLESRVSISVDTSKKQFSLELRSVTAADTAIYYCARGYDTNWYGDGYNWFDPWDRGTLVTVSS
VL: QAVVTQPPSVSGTPGQRVTISCSGSSSSIGSNTVHWYQHLPGTAPKLLMYNNNERPSGVPARFSGSKSGTSASLVITGLQADDEAEYYCQSYDTGLSGHVFGSGTELTVL
Usually Kd stands for the equilibrium constant for the complex coming apart. A lower Kd goes with a tighter complex. As a reminder, the EC50 is the concentration needed to bring the measured effect to its halfway point. As usually defined, the IC50 is the concentration needed to halve the response being measured. Read a high IC50 as lower potency. As to B1, the dissociation constant Kd in assay [1] amounted to 5.35 nM. Also, the EC50 in assay [2] and in assay [3] was 7.77 nM each time. This molecule showed a concentration for half-maximal inhibition (IC50) in assay [4] of 6.9 µg/mL.

B2: CoV2-09 (antibody, V domains shown)
VH: B1 VH
VL: QSALTQDPSVSVALGQTVRITCQGDSLRGSFASWYRQKPGQAPVLVIFGINNRPSGVPDRFSGSSSGNTASLTITGAQAEDEADYYCNSRESNSNRILFGGGTKVTVL
B2 showed an equilibrium dissociation constant (Kd) in assay [1] of 0.94 nM. The same molecule gave a concentration for half-maximal inhibition (IC50) in assay [4] of 3.54 µg/mL.
